According to the nanobody polyreactivity screen of Harvey et al. (2022):

test: yeast display, Sf9 membrane polyspecificity reagent, FACS + sequencing; frameworks hold sequencing errors
Summary of the method: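 Galactose induction of a Saccharomyces cerevisiae BJ5465 synthetic nanobody display library ran 36–48 hours. The cells were then stained for 1 hour at 4 °C with 10% biotinylated, detergent-solubilized Sf9 membrane reagent, pulled down on streptavidin microbeads and FACS-sorted into low and high (top ~1%) gates on expression and reagent-binding fluorescence. Labels for polyreactivity follow the gate of origin.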

Sequence	polyreactivity (PSR sort gate)
QVQLVESGGGLVQAGGSLRLSCAASGRTFHYYTMGWYRQAPGKERELVAAISQSGGRTYYADSVKGRFTISRDNAKNTVYLQMNSLKPEDTAVYYCAAVSWRVISDYRIVGYDYWGQGTQVTVSS	low polyreactivity
QVQLVESGGGLVQAGGSLRLSCAASGRTFIANAMGWYRQAPGKERELVAVITLNGGSTYYADSVKGRFTISRDNAKNTVYLQMNSLKPEDTAVYYCAAGRYYKLRATHGYWGQGTQVTVSS	low polyreactivity
QVQLVESGGGLVQAGGSLRLSCAASGRTFIGYAMGWYRQAPGKERELVATISVSGGSTYYADSVKGRFTISRDNAKNTVYLQMNSLKPEDTAVYYCAKAYLRFYDGPYDYWGQGTQVTVSS	low polyreactivity
QVQLVESGGGLVQAGGSLRLSCAASGRTFIINTMGWYRQAPGKERELVAAISKNGATTNYADSVKGRFTISSDNAKNSVYLQMNSLKPEDTAVYYCNARYSGYLRLDYWGQGTQVTVSS	low polyreactivity
QVQLVESGGGLVQAGGSLRLSCAASGRTFILNAMGWYRQAPGKERELVAAISWSGGSTYYADSVKGRFTISRDNAKNTVYLQMNCLKPEDTAVYYCAKRYVDPLGSGTHGSWGQGTQVTVSS	low polyreactivity
QVQLVESGGGLVQAGGSLRLSCAASGRTFIPYAMGWYRQAPGKERELVAAITSSGGRTYYADSVKGRFTISRDNAKNTVYLQMNSLKPEDTAVYYCNKYARGYDMDYWGQGTQVTVSS	high polyreactivity
QVQLVESGGGLVQAGGSLRLSCAASGRTFIPYAMGWYRQAPGKERELVATIRRGGSTYYADSVKGSFTISRDNAKNTVYLQMNSLKPEDTAVYYCAATRYSFGPRRVDYWGQGTQVSVSS	high polyreactivity
QVQLVESGGGLVQAGGSLRLSCAASGRTFISYAMGWYRQAPGKERELVAAISSSGGSTYYADSVKGRFTISRDNAKNTVYLQMNSLIPEDTAVYYCNADSSASTYTFPFDYWGQGTQVTVSS	low polyreactivity
QVQLVESGGGLVQAGGSLRLSCAASGRTFISYAMGWYRQAPGKERELVAGISRGGSTYYADSVKGRFTISRDNAMNTVYLQMNRLKPEDTAVYYCAARRWISSHSYKYGYWGQGTQVTVSS	high polyreactivity
QVQLVESGGGLVQAGGSLRLSCAASGRTFITNAMGRNRQAPGKERELVARISSDGSTYYADSVKGRFTISRDNAKNTVYLQMNSLKPEDTAVYYCNKEFLRRQLFTFWHLGGYWGQVTQVTVSS	low polyreactivity
QVQLVESGGGLVQAGGSLRLSCAASGRTFITYAMGWYRQAPGKERELVAAISWNGGTTYYADSVKGRFTISRDNAKNTVYLQMNSLKPEDTAVYYCAAYRWYSAARMGYWGQGTQVTVSS	high polyreactivity
QVQLVESGGGLVQAGGSLRLSCAASGRTFIYYAMGWSRQAPGKERELVAGISRNGGRTYYADSVKGRFTISRDNAKNTVYLQMNSLKPEDTAVYYCNAYPPSRHDYLGQGTQVTVSS	high polyreactivity
QVQLVESGGGLVQAGGSLRLSCAASGRTFIYYAMGWYRQAPGKERELVARIRANGVSTYYADSVKGRFTISRDNAKNTVYLQMNSLKPEDTAVYYCAKGYFPSQYEYWGQGTQVTVSS	high polyreactivity
QVQLVESGGGLVQAGGSLRLSCAASGRTFKAYAMGWYRQAPGKERELVAAITYSGGSTYYADSVKGRFTISRDNAKNTVYLQMNSLKPEDTAVYYCAASAQSRSRVKLYYWGQGTQVTVSS	high polyreactivity
QVQLVESGGGLVQAGGSLRLSCAASGRTFKDYAMGWYRQAPGKERELVAAISWSGGDTYYADSVKGRVTISRDNAKNTVYLQMNSLKPEDTAVYYCNADPSGVFFYSLEFDYWGQGTQVTVSS	low polyreactivity
QVQLVESGGGLVQAGGSLRLSCAASGRTFKHYAMGWYRPAPGKERELVAAITSGGSTYYADSVKGRFTISRDNAKNTVYLQMNSLKPEDTAVYYCNKESYFDTYRRYDSWGQGTQVTVSS	low polyreactivity
QVQLVESGGGLVQAGGSLRLSCAASGRTFKNNAMGWYRQAPGKERELVAAISSNGGSTYYADSVKGRFTISRDNAKNTVYLQMNSLKPEDTAVYYCAADRTIVEYYYWGQGTQVTVSS	high polyreactivity
QVQLVESGGGLVQAGGSLRLSCAASGRTFKNYAMGWYRQAPGKERELVAAISSGGGRTKYADSVKGRFTISRDNAKNSVYLQMNSLKPEDTAVYYCAAAYYYRDDYWGQGTQVTVSS	high polyreactivity
QVQLVESGGGLVQAGGSLRLSCAASGRTFKPYVMGWYRQAPGKERELVAAISSRGDITYYADSVKCRFTISRHNAKNTVYLHMNSLKPEDTAVYYCNAGPAVRSAYSTPYYDYWGQGTQVTVSS	low polyreactivity
QVQLVESGGGLVQAGGSLRLSCAASGRTFKRKAKGWYRQAPGKEWEFVAVITGSGGSTYYADSVKGRFTISRDNAKNTVYLQMNSLKPEDTAVYYCAAALGLRSTSWGRRGGGGDYWGQGTQVTVSS	high polyreactivity
QVQLVESGGGLVQAGGSLRLSCAASGRTFKRYAMGWYRQAPGKERELVAAITASGGNTYYADSVKGRFTISRDNAKNTVYLQMNSLKPEDTAVYYCNAVTSVQARPRNYYYWGQGTQVTVSS	high polyreactivity
QVQLVESGGGLVQAGGSLRLSCAASGRTFKRYAMGWYRQAPGKERELVATISGNGGRTYYADSVKGRFTISRDNAKNTVYLQMNSLKPEDTAVYYCAALLYIRSVGYDYWGQGTQVTVSS	low polyreactivity

Sequence	polyreactivity (PSR sort gate)
QVQLVESGGGLVQAGGSLRLSCAASGRTFKSYAMGWNRQAPGQERELVATITRDGRTNYADSVKGRFTISRDNAKNTVYLQLNSLKPEDTAVYYCNADSRYRYDYWGQGTQVTVSS	low polyreactivity
QVQLVESGGGLVQAGGSLRLSCAASGRTFKTYAMGWYRQAPGKERELVAAISRDGRTYYADSVKGRFTISRDNAKNTVYLQMNSLKPEDTAVYYCNKRSYRKGDYWGQGTQVTVSS	low polyreactivity
QVQLVESGGGLVQAGGSLRLSCAASGRTFKTYAMGWYSQAPGKERELVAAISRDGRTYYADSVKGRFTISRDNAKNTVYLQMNSLKPEDTAVYYCNKRSYRKGDYWGQGTQVTVSS	low polyreactivity
QVQLVESGGGLVQAGGSLRLSCAASGRTFKWNAMGWYRPAPGKERELVAAISISAGSTYYADSVKGRFTISRDNAKKTVYLQMNSLKPEDTAVYYCNTKYVRFYSRMDSWGQGTQVTVSS	low polyreactivity
QVQLVESGGGLVQAGGSLRLSCAASGRTFKWYAMGLYRQAPGKEREFVAGISRGAGRTYYADSVKGRFTISRDNAKNTVYLQMNSLKPEDTAVYYCAAVPSYHSTSPFYYWGQGTQVTVSS	high polyreactivity
QVQLVESGGGLVQAGGSLRLSCAASGRTFKYNAMGWYRQAPGKERELVAAITRSGSTYYADSVKGRFTISRDNAKNTVYLQMNSLKPEDTAVYYCNARIVNYGSYYYWGQGTQVTVSS	high polyreactivity
QVQLVESGGGLVQAGGSLRLSCAASGRTFKYNAMGWYRQAPGKERELVAVIRYSGGTTYYADSVKGRFTISRDNAKNTVYLQMNSLKPEDTAVYYCARGFTYQYSSFYYWGQGTQVTVSS	low polyreactivity
QVQLVESGGGLVQAGGSLRLSCAASGRTFKYNAMGWYRQAPGKERELVAVIRYSGGTTYYADSVKGRVTISRDNAKNTVYLQMNSLKPEDTAVYYCAADSWSRSVNYYYWGQGTQVTVSS	low polyreactivity
QVQLVESGGGLVQAGGSLRLSCAASGRTFKYNTMGWYRQAPGKERELVAVISRSGGRTYYADSVKGRFTISRDNAKNTVYLQMNSLKPEDTAVYYCAARARGNDGYYWGQGTQVTVSS	high polyreactivity
QVQLVESGGGLVQAGGSLRLSCAASGRTFKYYAKGWYRQAPGKERELVAAINSGGITYYADTVKGRFTISRDNEKNTVYLQRNSLKAEDTAVYYCAKVWKIGVLRYPSYGYYYWGQGTQVTVSS	high polyreactivity
QVQLVESGGGLVQAGGSLRLSCAASGRTFKYYAMGWYRPAPGKERELVAAISYNGGSTFYADSVKGRFTISRDNAKNTVYLQMNSLKPEDTAVYYCAAGPRGTGKYYWGQGTQVTVSS	high polyreactivity
QVQLVESGGGLVQAGGSLRLSCAASGRTFKYYAMGWYRQAPGKERELVAAISVSGGRTYYADSVKGRFTISRDNAKNTVYLQMNSLKPEDTAVYYCNAVRYVHPEDYWGQGTQVTVSS	high polyreactivity
QVQLVESGGGLVQAGGSLRLSCAASGRTFKYYAMGWYRQAPGKERELVAAITRSGSTNYADSVKGRFTISRDNAKNSVYLQMNSLKPEDTAVYYCAADVTLYYRGRRYYYWGQGTQVTVSS	high polyreactivity
QVQLVESGGGLVQAGGSLRLSCAASGRTFKYYAMGWYRQAPGKERELVAASTTGGSTHYADSVKGRFTISRDNAKNTVYLQMNSLKPEDTAVYYCAAGPFARYDYWGQGTQVTVSS	low polyreactivity
QVQLVESGGGLVQAGGSLRLSCAASGRTFKYYGMGWYRQAPGKERELVATISRSSSRTYYADSVKGRFTISRDNAKNTVYLQMNSLKPEDTAFYYCATLGPRSYAYDYWGQGTQVTVSS	high polyreactivity
QVQLVESGGGLVQAGGSLRLSCAASGRTFLAMGWYRQAPGKERELVAAISRTNYADSVKGRFTISRDNAKNTVYLQMNSLKPEDTAVYYCAKEYYSYEVYLGLSYVRRYDYWGQGTQVTVSS	low polyreactivity
QVQLVESGGGLVQAGGSLRLSCAASGRTFLFYAMGWYRQAPGKERELVAAIRRGGSTYYADSVKGRFTISRDNAKNTVYLQMNSLKPEDTAVYYCNAGSALRRSYYRYYYWGQGTQVTVSS	high polyreactivity
QVQLVESGGGLVQAGGSLRLSCAASGRTFLGNAMGWYRQAPGKERELVAAIRYSGGRTYYADSVKGRFTISRDNAKNTVYLQMNSLKPEDTAVYYCAKDRRYYKAYDYWGQGTQVTVSS	low polyreactivity
QVQLVESGGGLVQAGGSLRLSCAASGRTFLGYAMGWYRQAPGKERELVAAISYSGSSTYYADSVKGRFTISRDNAKNTVYLQMNSLKPEDTAVYYCAAQFYFLFDYWGQGTQVTVSS	low polyreactivity
QVQLVESGGGLVQAGGSLRLSCAASGRTFLLYAMGWYRQAPGKERELVASITSDGRTNYADSVKGRFSISRDNAKNTVYLHMNSLKPEDTADYYCATVGKVHHRLVAMDYWGQGTQVTVSS	low polyreactivity
QVQLVESGGGLVQAGGSLRLSCAASGRTFLPYAMGWYRQAPGKERELVAAITYSGGRTYYADSVKGRFTISRDNAKNTVYLQMNSLKPEDTAVYYCAASLWFGGGYWGLGTQVTVSS	high polyreactivity
